Measured values: a protein production outcome set (Wang et al. 2014)

Assay: label from the status in PepcDB records

Sequence | protein production
MNLDALVSWSRAQFALTAMYHWLFVPLTLGLGVIMAIVETIYYRNGKPEWKRYAQFWQKLFGINFAIGVATGIILEFEFGTNWSNYSLFVGDIFGAPLAIEGILAFFMEATFIAVMFFGWNKVSKGFHLSATWLTIIGASLSAVWILIANAWMQEPVGMTFNPDTMRNEMTDFWALVFSSTAINKFWHTISSCWTLGSVFALGVCGIYLLRKDDKHKDFALKNIKIIAPFGLAASLITAFTGDTSAYNVAQKQPMKLAAMEALYDSGQTDKDGLTADGKGLPLSLFGILNPAKETPQDDKEAFLFNVSVPRVLSVLGTRNPSGYVPGINNILEGGYVKADGTTAIPVDSMMQRGRRAIMALNDYSKAKQAGDMEAALQHKSVIDENFPYFGYSYIQHKNDIVPPVGLTYYSFRIMVGLGMLFILLFLMAWLLSFKPEKFSKMRWFHMIAIVCMPLAWVASQSGWIVAEVGRQPWTIQDLLPVQAAVSKLEAGSVIITFFVFLVLFSALLVAELNIMRKAIKKGPETE | failed
MLQRFYETLSTLRARWTRFTESPMGAWVRTGLRWLFVGGIVAYLAYELTTIGWGEVARALPVTPWFYVLLLLMYGTLPLTEAVLYGTAWGAQYRDLLPVLFRKRVLNNDVLGYSGEAYFYLWARRETNLGTGTVLRTVKDNVVISSVASTSVAFGLLAVFFLTGQIELLRQYLPSEAYTLGAGVAVLIILVSAVVAFRRSILSLPSSLLGLFAAGHVARFVLNNGLQVTQWAVVIPEVSAGTWITLLALYIVIQQVPFVPSRGLVFMSAGVGLSGPLQIPEAPLASMLLAQSLLDRGLNFLVYTGTTAAEAVGDDVEELDDLSIPEEMG | failed
MSAFHIRAEQSRDISAIHDVTEAAFTGIEHSDGTEQDLVDKLRAAKALSLSLVAEADGEVIGHIAASEVLIGGGVQGWFGIGPVSVRPDKQQQGVGIALMGSALDQLRAEGAGGIVLLGDPGYYRRFGFEVVPGLVYPDAPAEFFMAVCLNAPAFPQGVVEYHSAFGG | failed
LQTSRDLLSSVLSSSLDGIIVFSAIRSAGDTIADFECVLVNPQAEKLFESTAEDIVGMRLREDMPRQEEKGLFEAYREVVETGEPAEMEVHYDTDGQDVWFQVMAVKVENGVAVTYRDITDRKEAERQIREQAQLLDKA | failed
RFNPFIHQQDVYVQIDRDGRHLSPGGTEYTLDGYNASGKKEEVTFFAGKELRKNAYLKVKAKGKYVETWEEVKFEDMPDSVQSKLK | not failed
MFTAYKKFWTNYVNFTGRSSRSDYWWAILCNSLIILPFVFTATSIFYSNLIEFIRGSAISTFSGEESVLSVYSIDVIILFIIIVLFSLAILLPNLAISIRRLRDAGFHWSLIFVPIGAALFSFLGLIPFLRAIVSIIVWFALIFYYILLCQPSKPYQAPVQPIAPQQPQQMAPQGQPVQAQVQPQSQTTPQQPQTPPVQQPQAPTNQQ | failed
MADSTAMADAIWFGGPIVTIDAHTPSARAVAVRDGRIMAVGREHAVLRYRGPDTRMHDLRGATLLPGFVDAHSHVSTVGLEHHHHHH | failed
MSAPFHSALLDALNQRVVIGDGAMGTMLQAADLTLDDFLGLEGCNEILNDTRPDVLKDIHRAYFEAGADAVETNTFGCNLPNLADYDISDRIRELAEKGTRLARDVADEMGPGRDGMGRFVLGSMGPGTKLPTLGHAPFAILRDAYAEAAMGMIDGGADAILVETCQDLLQVKAAILGSQRAMETLGSRLPIITHVTVETTGTMLLGSEIGAALTALEPLGIDMIGLNCATGPAEMSEHLRHLSKYSSLPVSVMPNAGLPQLGPNGAEYPLTAEELAEALSGFVTEFGLGLVGGCCGTTPEHIRQVAEAVRLVEKAERNPVHESGTSSLYTAVPFQQDASILMIGERTNTNGSKAF | failed
MTMLDAAAPPDLAGLFAPAQRRSRTVDWQEPGPVARAAMAMSGLEVMQAIRDGRLPPPPLARLIGFKMAEVHRGRIVMQLDPDQSLENTAGLLHGAIAAALLDTAMGCAISTQQPAGQGSVTMDLKLSYLRPLSVRSGTIVAEGRVVKLGRQSSYTEGFVYDGAGKLAVHATATFAMLGAGPVAAPHPHES | failed
LAAESQADYLGFIFAESKRKVSPEDVKKWLNQVRVEKQVAGVFVNESIETMSRIAKSLKLDVIQLHGDEKPADVAALRKLTGCEIWKALHHQDNTTQEIARFKDNVDGFVIDSSVKGSRGGTGVAFSWDCVPEYQQAAIGKRCFIAGGVNPDSITRLLKWQPEGIDLASGIEKNGQKDQNLMRLLEERMNRYVSISE | failed
MGPINLLWLQAAGCGGCTMAILEQGRAGWFAELASFDINLLWHPSVSEATADDVIDLLAAVSAARTPLSVLVVEGAVLRGPNGSGRFNMLGGTGRSMASWISELAPRADYVVAVGSCSAYGGVPAAGHNPTDASGLQFLGTEPGGVLGAAFRSKAGLPVINIAGCAPHPGWIAETLAALALGEFSAAALDSFARPKFFAEHLAHHGCARNEFYEFKASAEAMSQRGCLMEHLGCKATQAVGDCNQRSWNGGGSCTQAGYPCIACTSPGFEAAHNYMTTAKVAGIPVGLPLDMPKAWFVALAALSKSATPKRVRANATADHVVVPPTPSGHRRK | failed
AHAPQRISGLALFDPAGVEAPETSDLQHLLEQGKNPFLVRSRADFQHFYSLTMAAPPWVPEAVLAAIAERYQARRGQLARIFAELQASPPMEPELAKIQAPTLLLWGREDRLLHPSSAQVWAKGLPQAQVQLWEGIGHMPMVERPVRSARLYQQFLER | failed
MVWWWRALGPSGEGQPGPLPSSLFPVIDPSRPTMQDIECLGVYTSGGDAPGMNACLRAVVRTAIANDIAVMGIRRGYEGMIEADFVEMERRSVSNILQSGGTILKSARSEAFRTEEGRRAAANSLRENGIDALVAIGGDGTFRGASKLYDEHGLGVVGCPGTIDNDLYGTDQTIGYDTALNTAIDNIDRIRDTADAHNRLFLVEVMGRDAGFIALNSGIGGGAELILIPETITEMDMVKERILSLMTAQRRSTIVVVAEGDELGGAQGIERALRDDAAFSDIELRSTILGHTQRGGAPTASDRVLASRLGVAAVESLMDGHSDVMVGMTNNEIKLTPLRNVYGRRKSIDYDLLKLTQILS | failed
MHLDPDACYHAVQSRDRRFDGWFFVGVTSTGVYCRPICAVRTPLQKNCRFFASAAAAEKAGFRPCLRCRPELAPGHSLAEMSSSLARAAARMIDEGFLQQHDLAALAAAVGVTDRHLRRIFRAEFDVSPIEYAQTQRLLLAKRLLTDTAMPVGDVAYAAGFGSVRRLNSGFAEHYGFAPTRLRTRAAPVSRGDDGATLMLGYRPPFAWHALLDFLRARAVDGVEVVDAHSYARTIALDYAGRRHAGWLRARDVPQRHAIALTLSASLVQAMPPVLARVRRLFDLDCRPDLVDTHLGTLAAGTPGLRVPGAVDGFEIAVRAIAGQVVSLARARRILARLAAAYGTPLAQPRAGLPTAFPSATALASVDPQALSGETGLQASRAAAMVEIARAIDAGRLRLEPLVPLAPTLAALQALSGIGEWTAQYIAMRALGWPNAFPLGDYVLRKRLADHDGTLPTRHAMATRAEDWAPWRAYAAMHLWHRDDAQAPTP | failed
MWLGYMNKSIPTTRKTRTFKAMSIEFSAPAKMKIEVWSDIMCPFCYIGKKRLDDALSTFDQAGRIEVEYKSFELMPGLETHPLRSDVEYLADAKGMSLEQARQMNGQVQAMAQATGLEMNPDETIAANTINAHRLTHFAKAHGKQQEVAQELFKAHFVDGKNVDDLDVLVSIAAEVGLDASAAREALESDVYTNEVQQDVHEARQLGVQGVPFFVFDRKYAINGAQQEEVFTGTVEKAFEEWAAENPVSPFEVIDGQSCSVDGTCN | not failed
MKNKTIISKQNLVLIVIMVGATLTDQLSKIWITSNLQLGESIEIIPSFFKITYAQNTGAAWSILEGQMTFFYVITLVALILLGWYFYRLKDYQIIQKIGVALMVSGTLGNFIDRLLFQYVRDSLDFHILGYNFPIFNVADVLLICGVLFIIIDEVLKSFGVSYKKM | failed
MSGGQQERHVLILNTVGGRRAIALEAAAYSLGRDESNAIVIDFETVSRQHAILLRVPVPGTTSYRYRLVDGNANGKPSTNGTFVNGKRISSHELQHGDVILFGRKAKASYLLLSMADTEFSQYLQSIAFQSIKSDLRGAKETLVGMELSGELRRTPNRELEHHHHHH | not failed
MINSFKSVFLTIRYFIQNDLATQASALTYRTILSIVPMLAVLIGIAKGFGIQQVVHDWLKEYLPGHQQELEQALGYVENYLAQVQGGIFVGVGLIVLLYTVFSLIATVEDTFTDIWQTNKRRTWKRRVIDYMGAFFLLPILITASSGLTLMMTTIKGTYFSEYILFGPMLELILNLIPYVIIVLLFTGMYIVLPTVNVRFWPAFISGVLAGIVFQIFQALYISGILWISKYNAIYGSFAAVPLLLLWIQLSWTIVLFGAQLSFSIQNVRKFAFERDTTNVSRRYIDFITIVVASLIVKRFISDERRPHTADSLAEESKAPIRLVSEAIHRLLSIEAITEVNYAHDPKAEFFSPAIDPEKITVGFILDRIDRYGSEHFKVDNKVRFAPEWQAIEDSRQSLHIPPADTLLKNL | failed
MKVERLSQPAQHLLTAGVENENSFALDTESVFTSAFLRAARGDARSSSRSDVVSLSEIVLEINQSIDELRVEKPAIKMSPQKYLLRNENNAGEFFFIKKARSEGYLQGRTGDPGAGGVDVSGPSDVRIPNRVTIGPDTVLFHPATGAPLLWFVRDGFDYDFFDGSGFHPRTGAKLAPFTKEEALIFEKRIREKEAEIRREAERVEKDRADREARDFAAKEALARKQEEDRKLREAEAARASEAGQRCDELAANPNDRNKVGQGASFSALKAQAADAVKACDLALKQKPSELRFKYQLARALQFSDRPRSFKLHKELVGQGYAASYDNLGWMYYTDRKDKPQAIVLFRQGIQVGDVDSMVSLAELVDRAEATPANASESKIELCRRAAELGHVGAAQCYQVEVAKQEQAEKDRAQQLEQQKMMIQLMGTIIQSATRR | failed
MSLRWQWRIYEEPLQEPLTTAQGVWRSRSGIYLRLEDEQGQVGYGEIAPLPGWGSETLNADIALCQQLPGHLTPEIMATIPEALPAAQFGFATAWQSVGRLPYRVRPWPICALLGSGQAALEQWQQSWQRGQTTFKWKVGVMSPEEEQAILKALLAALPPGAKLRLDANGSWDRATANRWFAWLDRHGNGKIEYVEQPLPPDQWQALLSLAQTVTTAIALDESVVSAAEVQRWVDRGWPGFFVIKTALFGDPDSLSLLLRRGLEPQRLVFSSALEGAIARTAIFHLLETWQPCHALGFGVDRWRSAPLLTTLTAYERLWERLDQGHHHHHH | not failed
SHPCFVQGRPELLSQIKRKQSARTVEDKQVNEQTQQNLEVVMAEMRAMREKAKNMEDKMNKLTKENRDMWTQMGSMRQQHARQQQYFKKLLHFLVSVMQPGLSKRVAKRGVLEIDFCAANGTAGPNSKRARMNSEEGPYKDVCDLLESLQRETQEPFSRRFTNNEGPLISEVTDEFGNSPVGRGSAQDLFGDTFGAQSSRYSDGGATSSREQSPHPIISQPQSNSAGAHGANEQKPDDMYMGSGPLTHENIHRGISALKRDYQGASPASGGPSTSSSAPSGAGAGARMAQKRAAPYKNATRQMAQPQQDYSGGFVNNYSGFMPSDPSMIPYQPSHQYLQPHQKLMAIEDQHHPTTSTSSTNADPHQNLYSPTLGLSPSFDRQLSQELQEYFTGTDTSLESFRDLVSNHNWDDFGNNVPLDDDEEGSEDPLRQLALENAPETSNYDGAEDLLFDNEQQYPENGFDVPDPNYLPLADEEIFPHSPALRTPSPS | failed
VGSVLEIKDPENLKNLGSLIGEEIAKLHQALNSVNSNNELVKRELYKLVYEWALPNLEKNEHVDQDVVRTMNQIHSDFKKTITSLRKQIIHRDMHLSNVIFKDNEFQGFIDFELLERNVRVFDLCYCCTSILSELHSDEELRGKWQHIISKIFEGYNKQSILTREELQAIWYVMLSIQVIFITYFVQLPDLLKLNEEMFF | failed
